Experimental findings from paper PMC11006873, “Fuzzy recognition by the prokaryotic transcription factor HigA2 from Vibrio cholerae” (Nature Communications, 2024) are described below.

What is called Kd is the free concentration of one partner at which half of the binding sites on the other are occupied at equilibrium, for simple one-to-one binding. What is called stoichiometry N is a count of units in the complex or per binding partner.

Data set [1] concerns the target HigA2Phd (Vibrio cholerae (globular domain); Phd IDR organism not stated) (UniProt Q9KMA5). In words: ITC. As to conditions: ITC: 20 mM sodium phosphate pH 7.0, 150 mM NaCl, 1 mM EDTA, 25 or 5 C; EMSA/footprint: 20 mM Tris pH 8, 200 mM NaCl; NMR: 20 mM sodium phosphate pH 6.8, 130 mM …. For orientation: In EMSA bound probe runs differently from free probe, usually more slowly.

Data set [2] concerns the molecule itself. In words: crystal structure; HigA2 and the 17 bp operator fragment Opr17 mixed 1:1.2, 250 uM complex; sitting drop vapor diffusion; 0.2 M sodium chloride, 0.1 M Na HEPES pH 7.5, 12% (w/v) PEG 8000.
The target in data set [3] is T1, HigA2 (Vibrio cholerae, UniProt Q9KMA5). The experiment in a line: ITC; 25 C; ITC: 20 mM sodium phosphate pH 7.0, 150 mM NaCl, 1 mM EDTA, 25 or 5 C; EMSA/footprint: 20 mM Tris pH 8, 200 mM NaCl; NMR: 20 mM sodium phosphate pH 6.8, 130 mM. As to conditions: protein: recombinant; tags: C-terminal His6, uncleavable; chain copies: 2. (In general: ITC needs no label: the signal is the heat of the interaction.)

For another data set, the target named is T2, HigA2IDR (Vibrio cholerae, UniProt Q9KMA5).
T2 chain: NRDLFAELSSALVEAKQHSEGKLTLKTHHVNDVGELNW
The description is as above. As to conditions: tags: C-terminal extra W; chain copies: 2.

Data set [4] addresses T3, HigA2ΔIDR (Vibrio cholerae, UniProt Q9KMA5, del1-36). The data set is described as above. As to conditions: protein: recombinant; tags: C-terminal His6, uncleavable; chain copies: 2.
The target in data set [5] is T1, HigA2. In words: ITC; 5 C; ITC: 20 mM sodium phosphate pH 7.0, 150 mM NaCl, 1 mM EDTA, 25 or 5 C; EMSA/footprint: 20 mM Tris pH 8, 200 mM NaCl; NMR: 20 mM sodium phosphate pH 6.8, 130 mM. As to conditions: protein: recombinant; tags: C-terminal His6, uncleavable; chain copies: 2.
In the next data set the target is HigA2Mut(14-25) (Vibrio cholerae, UniProt Q9KMA5, L14S;V15S;E16A;A17T;K18A;Q19S;H20G;S21A;E22T;G23A;K24S;L25S). The description is as above. As to conditions: protein: recombinant; tags: C-terminal His6, uncleavable; chain copies: 2.
For data set [6], the target named is T3, HigA2ΔIDR. Described as above. As to conditions: protein: recombinant; tags: C-terminal His6, uncleavable; chain copies: 2.
A further data set addresses HigA2Mut(26-37) (Vibrio cholerae, UniProt Q9KMA5, T26S;L27S;K28A;H30A;H31S;V32G;N33A;D34T;V35A;G36S;E37S). The description is as above. As to conditions: protein: recombinant; tags: C-terminal His6, uncleavable; chain copies: 2.
The target of another data set is HigA2Mut(2-13) (Vibrio cholerae, UniProt Q9KMA5, N3S;R4A;D5T;L6A;F7S;A8G;E9A;L10T;S11A;A13S). Described as above. As to conditions: protein: recombinant; tags: C-terminal His6, uncleavable; chain copies: 2.
Another data set addresses HigA2Shuff (Vibrio cholerae, UniProt Q9KMA5, IDR sequence shuffled). Described as above. As to conditions: protein: recombinant; tags: C-terminal His6, uncleavable; chain copies: 2.
Data set [7] deals with T1, HigA2. The experiment in a line: X-ray crystallography; HigA2 dimer; residues 37-104 visible; ITC: 20 mM sodium phosphate pH 7.0, 150 mM NaCl, 1 mM EDTA, 25 or 5 C; EMSA/footprint: 20 mM Tris pH 8, 200 mM NaCl; NMR: 20 mM sodium phosphate pH 6.8, 130 mM. As to conditions: protein: recombinant; tags: C-terminal His6, uncleavable; chain copies: 2; blunt.

For the molecule “ATCTGTACGCTTGGTGCGTACACTT (double strand) [Opr25]”, the equilibrium dissociation constant (Kd) in data set [1] stood at 10000 nM.

B1: HigA2 antitoxin from Vibrio cholerae (full-length, C-terminal histidine tag) (natural protein)
chain: MSNRDLFAELSSALVEAKQHSEGKLTLKTHHVNDVGELNISPDEIVSIREQFNMSRGVFARLLHTSSRTLENWEQGRSVPNGQAVTLLKLVQRHPETLSHIAEL
notes: Antitoxin HigA2 of the higBA2 toxin-antitoxin module, Vibrio cholerae; N-terminal disordered region (residues 2-36) and globular C-terminal HTH domain (residues 37-104); only residues 37-104 are seen in the crystal; The histidine tag is un-cleavable (pET21b, NdeI/XhoI); also called wild-type HigA2; full-length HigA2; not shown: histidine tag, C-terminal, kept
With B1, the “stoichiometry N” value in data set [2] stood at 2.

B2: Opr45 (dsDNA)
DNA 1: AATTCTTGCCATCTGTACGCTTGGTGCGTACACTTCCTATATGAA
DNA 2: TTCATATAGGAAGTGTACGCACCAAGCGTACAGATGGCAAGAATT
Regarding B2, the Kd worked out at 25.1 ± 5.2 nM in the data set with HigA2 [3] and 400 ± 50 nM with HigA2ΔIDR [4]. Moreover, the binding result in the data set with HigA2IDR is reported as “no binding”.

B3: Opr25 (dsDNA)
DNA 1: ATCTGTACGCTTGGTGCGTACACTT
DNA 2: AAGTGTACGCACCAAGCGTACAGAT
Consider B3, for which the Kd with HigA2 [5] came out at 15 ± 3 nM; with HigA2Mut(14-25) it was 5100 ± 2400 nM; with HigA2ΔIDR [6], 480 ± 160 nM; in the data set with HigA2Mut(2-13), 390 ± 130 nM; with HigA2Shuff, 37000 ± 20000 nM; with HigA2 [3], 13.8 ± 5.8 nM. Further, the binding result with HigA2Mut(26-37) is “no binding”.

B4: Opr17 (dsDNA)
DNA 1: GTACGCTTGGTGCGTAC
DNA 2: GTACGCACCAAGCGTAC
On to B4, for which the binding result in the data set with HigA2 [7] was “binds”.
